Laboratory results from patent US20060039913A1 (Janssen / Centocor, published 2006).
Where “and” joins values, the source holds several entries; their conditions need not be identical. Identical values can stand only once.

T1: human Eotaxin-3 (CCL26) (human, UniProt Q9Y258 24-94)
T1 sequence (looked up): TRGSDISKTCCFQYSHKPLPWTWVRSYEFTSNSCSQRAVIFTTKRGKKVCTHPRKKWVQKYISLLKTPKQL

T2: human MCP-2 (human, UniProt P80075 24-99)
T2 sequence (looked up): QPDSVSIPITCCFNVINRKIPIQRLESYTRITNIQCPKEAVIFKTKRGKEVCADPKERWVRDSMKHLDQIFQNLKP

T3: human Eotaxin-2 (CCL24, MPIF-2) (human, UniProt O00175 27-104, limits assumed)
T3 sequence (looked up): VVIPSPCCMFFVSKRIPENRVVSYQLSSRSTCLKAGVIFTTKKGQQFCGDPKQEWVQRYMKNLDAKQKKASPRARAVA

B1: murine anti-human MCP-1 monoclonal antibody C775 (antibody, mouse IgG1, V domains shown)
VH: QVQLKQSGAELVRPGASVKLSCKASGYTFTDYYINWVKQRPGQGLEWIARIYPGTGNTYYNENFKGKATLTAEKSSSTAYMQLSSLTSEDSAVYFCARSGSTVVGNYYGMDYWGQGTSVTVSS
VL: SIVMTQTPKFLLVSAGDRVSITCKASQSVSNDVAWYQQKPGQSPKLLIYYASNRYTGVPDRFTGSGYGTDFTFTISTVQAEDLAVYFCQQDYSSPWTFGGGTKLEIKR
notes: also called CNTO4874; CNTO 4874

Key:
[1] = biological target: chemokine receptor CCR2 on THP-1 cells (human) (UniProt P41597); assay: radioligand saturation binding of 125I MCP-1 to THP-1 cells (CCR2), specific bound cpm, one site binding (hyperbola) fit
[2] = biological target: chemokine receptor CCR2 on THP-1 cells (human) (UniProt P41597); assay: radioligand saturation binding on THP-1 cells, one-site binding hyperbola fit; mass concentration as fitted
[3] = biological target: chemokine receptor CCR2 on THP-1 cells (human) (UniProt P41597); assay: radioligand saturation binding on THP-1 cells, one-site binding hyperbola fit; molar conversion with 150 kDa
[4] = biological target: T4, recombinant human MCP-1 (monocyte chemoattractant protein 1) (human, UniProt P13500 24-99); assay: BIAcore, C775 captured on anti-Fc surface, MCP-1 in solution, 25 C
T4 construct: Bought recombinant protein (RDI-304 for the EIA; R&D Systems 279-MC for the other assays); also called rHuMCP-1; cold MCP-1
Description: (§1) Anti-MCP-1 monoclonal antibodies were captured onto a BIAcore CM5 sensor surface (Biacore International, Piscataway, N.J.). A solution containing a mixture of rabbit anti-human Fc specific polyclonal antibodies and rabbit anti-mouse Fc specific polyclonal antibodies was first immobilized onto the sensor surface. After the restabilization of the new baseline, the anti-MCP-1 mAb is passed over the surface.
(§2) Human MCP-1 purchased from R&D Systems (www.rndsystems.com) was reconstituted as proscribed by the vendor. Samples of varying concentrations were prepared using this stock solution. They were then passed over the surface of captured anti-MCP-1 mAb using KINJECT command at a flow rate of […]. Measurements are typically performed at 25° C. Sensor data was analyzed using the BLAevaluation software provided with the instrument.

[5] = biological target: T4, recombinant human MCP-1 (monocyte …); assay: cell-based or functional assay
[6] = biological target: T4, recombinant human MCP-1 (monocyte …); assay: BIAcore, ratio of binding constants, reference eotaxin
Description: as §1
(§3) Analysis is performed as described above, with the exception only a single concentration is used, typically, a high ligand concentration (100 nM). Chemokines selected for mAb specificity were human forms of MCP-1, MCP-2, Eotaxin-1, Eotaxin-2 (CCL24, MPIF-2, NP_{—}002982) and Eotaxin-3 (CCL26, GenBank Q9Y258). All chemokines were purchased from R&D Systems. Dextran-sulfate (1%) was added to the sample buffer in the final round of assays to reduce non-specific binding, particularly to eotaxin-3.
The data for binding of C775 to each of the ligand described was processed to give a binding constant, where measurable. There was no measurable binding of C775 to any of the other MCP-1 homologs or eotaxin homologs. The calculated binding constant of C775 to MCP-1 by this method was 1.0 nM and for eotaxin >5 uM, respectively, for a ligand concentration 100 nM. Therefore, the binding specificity of C775 for MCP-1 as compared to eotaxin is >5000 fold. […]

human Eotaxin-3 (CCL26) = biological target: T1, human Eotaxin-3 (CCL26); assay: BIAcore, C775 captured on anti-Fc surface, single ligand concentration
Description: as §1, §2, §3

human MCP-2 = biological target: T2, human MCP-2; assay: as above
Description: as §1, §2, §3

[7] = biological target: T3, human Eotaxin-2 (CCL24, MPIF-2); assay: as above
Description: as §1, §2, §3

[8] = biological target: T5, 125I labeled human MCP-1 (NEX332, Perkin Elmer) (human, UniProt P13500 24-99, 125I label, residue not stated); assay: inhibition of 125I MCP-1 (1 ng/ml) binding to CCR2 on THP-1 cells, filter plate radioligand assay
T5 construct: Bought radio-iodinated MCP-1; also called radiolabeled MCP-1
Description: Negative controls (no inhibition) or total binding was measured in 50 ul of assay buffer with no other additions. Nonspecific binding (background) was measured by adding 50 ul of MCP-1 at a final concentration of […]. Test wells received 50 ul of serial dilutions of mAb. Lastly, 50 ul of ¹²⁵I MCP-1 at a final concentration of 1 ng/ml was added to all wells resulting in a total assay volume of […].
To test the efficacy of anti-MCP-1 mabs, a concentration of 1 ng/ml ¹²⁵I MCP-1 was used. Cells were incubated with 1 ng/ml ¹²⁵I MCP-1 with or without serial dilutions of either the commercial Mab (positive control) or 6 different Mabs generated in Example 2. There is a dose-dependent inhibition of ¹²⁵I MCP-1 binding to the CCR2 receptor with the commercial Mab. A dose-dependent inhibition was also observed with five of the six Centocor-generated Mabs allowing the calculation of an IC50 concentration: C727, C728, C752, C753 and, C775.

T4 sequence (P13500 24-99 limits assumed): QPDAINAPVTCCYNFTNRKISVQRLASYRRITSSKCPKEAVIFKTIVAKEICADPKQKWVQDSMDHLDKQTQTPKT
T5 sequence (P13500 24-99 limits assumed): as above

Row | Molecule | BMAX [1] [cpm] | Kd [2] [µg/mL] | Kd [3] [nM] | Kd [4] [nM] | IC50 (nM), Ca2+ mobilization in THP-1 cells with 300 ng/ml MCP-1 [5] [nM] | IC50 (µg/ml), Ca2+ mobilization in THP-1 cells with 300 ng/ml MCP-1 [5] [µg/mL] | binding specificity for MCP-1 as compared to eotaxin (fold) [6] [fold] | binding result (human Eotaxin-3 (CCL26)) | binding result (human MCP-2) | binding result [7] | IC50 [8]
1 | 125I labeled human MCP-1 (NEX332, Perkin Elmer) (from UniProt P13500 24-99) (ligand) | 15700 | 0.00896 | 1 |  |  |  |  |  |  |  | 
2 | B1 |  |  |  | 1 | 53 | 8.01 | > 5000 | no binding (tested: 100 nM ligand) | no binding (tested: 100 nM ligand) | no binding (tested: 100 nM ligand) | 7.1 µg/mL and 47 nM
